The source of these data is patent US20230295305A1 (GRITSTONE BIO, published 2023).

In one assay the target is T1, CD3 on CD3+ Jurkat cells.
T1 construct: whole, on cells
Kind of assay: flow cytometry, Format 41 bispecific on CD3+ Jurkat cells.

The target in assay [1] is T2, HLA-A*02:01 / … complex (HLA-PEPTIDE target G8) on cells (human).
T2 construct: whole, on cells; also called target pHLA; pHLA 10mer
Briefly: flow cytometry, Format 41 bispecific on A375 cells expressing ~300,000 copies of the pHLA 10mer.

In assay [2] the target is T2, HLA-A*02:01 / … complex (HLA-PEPTIDE …). Briefly: cell-based or functional assay.
The target of assay [3] is T3, biotinylated pHLA: HLA subtype A*02:01 complexed with … (HLA-PEPTIDE target G8) (human).
T3 construct: Soluble biotinylated pHLA coupled to U-PLEX linker 1 in the MSD assay; also called pHLA target
Briefly: MSD specificity ratio; threshold for selection of the 12 hit clones of Table 14. As to the method:
G8 scFv screening was conducted using the Meso Scale Discovery U-PLEX Development Pack, 9-assay (cat. No. K15234N). The pack contains a 10-spot U-PLEX plate with 9 activated spots and 9 unique linkers as well as stop solution and read buffer. Biotinylated pHLA and biotinylated Protein L were each diluted to 33 nM using PBS+0.5% BSA. For each plate, 200 μL of the diluted pHLA or protein L was mixed with 300 μL of the corresponding Linker (see Table 9) and incubated at room temperature for 30 minutes.
Following the 30-minute incubation, 200 μL stop solution was added to each linker-pHLA solution. They were again incubated for 30 minutes at room temperature. These volumes were scaled based on the number of plates. The linker-pHLA solutions were then a 10× solution. They were then pooled together and further diluted with stop solution to the final 1× concentration. For example, for one plate with one linker, 600 μL pHLA would be diluted with 5.4 mL stop solution for the 1× concentration with a total volume of 6 mL. For one plate using 8 linkers, 600 μL of each linker was pooled to give 4.8 mL volume and 1.2 mL additional stop solution added for the final 6 mL volume. All volumes were scaled for additional plates. The pooled linker-pHLA solution was then coated onto the 10-spot plate as 50 μL/well, the plate sealed and stored at 4° C. overnight.
Samples, periplasmic extracts (PPE) were diluted 40-fold with PBS+1% BSA. The plate was washed 3 times with PBS+0.05% Tween and samples added as 50 μL/well. Plates were incubated at room temperature shaking for 2 hours. The plates were washed as before and 50 μL of 1 μg/mL SulfoTag anti-Myc tag (Abcam, ab206486) was added to each well. The anti-Myc tag antibody was sulfo-tag labeled using the MSD Gold Sulfo-tag NHS-Ester Conjugation kit (Meso Scale Discovery, R31AA-2) at a challenge ratio of 10. The plates were incubated for 1 hour shaking at room temperature. The plate wash was repeated and 150 μL 2× Read Buffer T (Meso Scale Discovery, R92TC-2) was added to all wells and the plate read immediately on the Quickplex SQ 120.

A value given as a limit tells only on which side of the number the result lay.

T1 sequence (P07766 23-207): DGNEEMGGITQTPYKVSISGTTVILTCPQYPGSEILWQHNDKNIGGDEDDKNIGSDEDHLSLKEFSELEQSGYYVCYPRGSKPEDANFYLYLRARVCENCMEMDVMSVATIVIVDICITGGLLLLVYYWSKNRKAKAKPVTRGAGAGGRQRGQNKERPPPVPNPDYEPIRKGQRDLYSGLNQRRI

B1: 5G06NT Format 41 diabody bispecific antibody (anti-G8 x anti-CD3) (bispecific antibody, V domains shown)
VH: EVQLLESGGGLVQPGGSLRLSCAASGFTFSDYYMSWVRQAPGKGLEWVSGINWPGGSTGYADSVKGRFTISRDNSKNTLYLQMNSLRAEDTAVYYCARVEQGYDIYYFYYMDVWGKGTTVTVSS
VL: DIQMTQSPSSLSASVGDRVTITCRASQSISSYLNWYQQKPGKAPKLLIYKASSLESGVPSRFSGSGSGTDFTLTISSLQPEDFATYYCQQSYSAPYTFGPGTKVDIK
As for B1, the EC50 with CD3 on CD3+ Jurkat cells is 41 nM; in assay [1], 0.11 nM. Also, the “EC 50 (nM), cytotoxicity of A375 FoxE1 cells” value in assay [2] was 0.08 nM.

B2: 1B03 (G8-1B03, Parent A) Format 41 diabody bispecific antibody (anti-G8 x anti-CD3) (bispecific antibody, V domains shown)
VH: EVQLLESGGGLVQPGGSLRLSCAASGFTFSDYYMSWVRQAPGKGLEWVSGINWNGGSTGYADSVKGRFTISRDNSKNTLYLQMNSLRAEDTAVYYCARVEQGYDIYYYYYMDVWGKGTTVTVSS
VL: DIQMTQSPSSLSASVGDRVTITCRASQSISSYLNWYQQKPGKAPKLLIYKASSLESGVPSRFSGSGSGTDFTLTISSLQPEDFATYYCQQSYSAPYTFGPGTKVDIK
Take B2: the figures for the EC50 (in the assay with CD3 on CD3+ Jurkat cells; in assay [1]) were 161 nM and 72.8 nM, respectively.

B3: 05C04 scFv (scFv, V domains shown)
VH: EVQLLESGGGLVQPGGSLRLSCAASGYTFSDYYMSWVRQAPGKGLEWVSGINWPGGYTGYADSVKGRFTISRDNSKNTLYLQMNSLRAEDTAVYYCARVEQGYDIYYYYYMDVWGKGTTVTVSS
VL: DIQMTQSPSSLSASVGDRVTITCRASQSISSYLNWYQQKPGKAPKLLIYKASSLESGVPSRFSGSGSGTDFTLTISSLQPEDFATYYCQQSYSAPYTFGPGTKVDIK
notes: As m4: periplasmic-extract scFv
Regarding B3, the target/OTLA specificity in assay [3] is above 50 ratio.

B4: 05A08 scFv (scFv, V domains shown)
VH: EVQLLESGGGLVQPGGSLRLSCAASGYTFSDYYMSWVRQAPGKGLEWVGNINWNGGSTLYADSVKGRFTISRDNSKNTLYLQMNSLRAEDTAVYYCARVEQGYDNYYYYYMDVWGKGTTVTVSS
VL: DIQMTQSPSSLSASVGDRVTITCRASQSISSYLNWYQQKPGKAPKLLIYKASSLESGVPSRFSGSGSGTDFTLTISSLQPEDFATYYCQQSYSAPYTFGPGTKVDIK
notes: as for B3
On to B4, for which the target/OTLA specificity in assay [3] was above 50 ratio.

B5: 05A03 scFv (scFv, V domains shown)
VH: EVQLLESGGGLVQPGGSLRLSCAASGYTFSDYYMSWVRQAPGKGLEWVSGINWPGGSTGYADSVKGRFTISRDNSKNTLYLQMNSLRAEDTAVYYCARVEQGYDIYYYYYMDVWGKGTTVTVSS
VL: DIQMTQSPSSLSASVGDRVTITCRASQSISSYLNWYQQKPGKAPKLLIYKASSLESGVPSRFSGSGSGTDFTLTISSLQPEDFATYYCQQSYSAPYTFGPGTKVDIK
notes: as for B3
Regarding B5, the target/OTLA specificity in assay [3] is above 50 ratio.

B6: 09G01 scFv (scFv, V domains shown)
VH: EVQLLESGGGLVQPGGSLRLSCAASGFTFSDYYMSWVRQAPGKGLEWVSVINWPGSSTGYADSVKGRFTISRDNSKNTLYLQMNSLRAEDTAVYYCARVEQGYDIYYYYYMDVWGKGTTVTVSS
VL: DIQMTQSPSSLSASVGDRVTITCRASQSISSYLNWYQQKPGKAPKLLIYKASSLESGVPSRFSGSGSGTDFTLTISSLQPEDFATYYCQQSYSAPYTFGPGTKVDIK
notes: as for B3
For the molecule B6, the target/OTLA specificity in assay [3] is above 50 ratio.

B7: 05G09 scFv (scFv, V domains shown)
VH: EVQLLESGGGLVQPGGSLRLSCAASGFTFSDYYMSWVRQAPGKGLEWVGGINWPGGSTDYADSVKGRFTISRDNSKNTLYLQMNSLRAEDTAVYYCARVEQGYDIYYYYYMDVWGKGTTVTVSS
VL: DIQMTQSPSSLSASVGDRVTITCRASQSISSYLNWYQQKPGKAPKLLIYKASSLESGVPSRFSGSGSGTDFTLTISSLQPEDFATYYCQQSYSAPYTFGPGTKVDIK
notes: As m4; also called 0509
In the case of B7, the target/OTLA specificity in assay [3] was above 50 ratio.

B8: 05G06 scFv (scFv, V domains shown)
VH: EVQLLESGGGLVQPGGSLRLSCAASGFTFSDYYMSWVRQAPGKGLEWVSGINWPGGSTGYADSVKGRFNISRDNSKNTLYLQMNSLRAEDTAVYYCARVEQGYDIYYFYYMDVWGKGTTVTVSS
VL: DIQMTQSPSSLSASVGDRVTITCRASQSISSYLNWYQQKPGKAPKLLIYKASSLESGVPSRFSGSGSGTDFTLTISSLQPEDFATYYCQQSYSAPYTFGPGTKVDIK
notes: As m4: periplasmic-extract scFv; also called 04A11
Turning to B8, the target/OTLA specificity in assay [3] is above 50 ratio.

B9: 09D01 scFv (scFv, V domains shown)
VH: EVQLLESGGGLVQPGGSLRLSCAASGFTFSDYYMSWVRQAPGKGLEWVSGINWHHGSTGYADSVKGRFTISRDNSKNTLYLQMNSLRAEDTAVYYCARVEQGYDIYYYYYMDVWGKGTTVTVSS
VL: DIQMTQSPSSLSASVGDRVTITCRASQSISSYLNWYQQKPGKAPKLLIYKASSLESGVPSRFSGSGSGTDFTLTISSLQPEDFATYYCQQSYSAPYTFGPGTKVDIK
notes: as for B3
Take B9: the target/OTLA specificity in assay [3] is above 50 ratio.

B10: 09D06 scFv (scFv, V domains shown)
VH: EVQLLESGGGLVQPGGSLRLSCAASGFTFSDYYMSWVRQAPGKGLEWVSGINWPGSSTGYADSVKGRFTISRDNSKNTLYLQMNSLRAEDTAVYYCARVRQGYDYYYYYYMDVWGKGTTVTVSS
VL: DIQMTQSPSSLSASVGDRVTITCRASQSISSYLNWYQQKPGKAPKLLIYKASSLESGVPSRFSGSGSGTDFTLTISSLQPEDFATYYCQQSYSAPYTFGPGTKVDIK
notes: as for B3
With B10, in assay [3], the target/OTLA specificity is above 50 ratio.
